According to the supplement of paper PMC9170038:

Tested on: MS2 coat protein
Assay: apparent KD of MS2 coat protein; designed switch direction (-1 OFF switch, 1 ON switch): 1; higher = weaker reporter binding
Method in brief: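 Designed RNA switches sharing common flanks were transcribed on Illumina chips by stalled E. coli RNA polymerase. They were titrated with SNAP-549-labelled MS2 coat protein, from 0.7 or 1.5 nM doubling to 3 µM, in Tris-HCl pH 7.5 buffer with KCl, MgCl2, BSA, DTT, tRNA and Tween-20. Titrations ran without input, with 200 uM small-molecule ligand, or with an oligonucleotide input. The apparent KD of each design is the median over its clusters, after curve-fitting of normalised cluster fluorescence.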

[1] = input ligand: microRNA oligo, concentration not stated
[2] = Eterna round: R95, input ligand: FMN 200 uM
[3] = Eterna round: R95, input ligand: microRNA oligo, concentration not stated
[4] = Eterna round: R95, input ligand: none

UUGCUCGGGUGAGGAUAUGCCGCCGUUUCGGCUGCAGAAGGUGCUACGUUACAUGAGGAUCACCCAUGUCUCUGUUGUUUCGUC [salish99_SSNG1_r04_968] (Eterna round: R96, puzzle: Same State NG 1)
apparent KD of MS2 coat protein (input ligand: FMN 200 uM): 65.1 nM | apparent KD of MS2 coat protein [1]: 28.1 nM | apparent KD of MS2 coat protein (input ligand: none): 52.3 nM

GCGGAAACUCACAUGAGGAUCACCCAUGUUCCGGAAACGGCACAGGAUAUCUGUCCGAAAAGGUCAGAGAAGGGUGUAAUCCGC [Fiskers NG3ss - 90] (Eterna round: R96, puzzle: Same State NG 3)
apparent KD of MS2 coat protein (input ligand: FMN 200 uM): 572 nM | apparent KD of MS2 coat protein [1]: 101 nM | apparent KD of MS2 coat protein (input ligand: none): 79.6 nM

UCUUGGUUUUUGCUCGUUUUUUGUGUUGAACAUGAGGAUCACCCAUGUAUUAUACGAUCCGGUUUAAUAAUAAUCCG [JMF 80] (puzzle: Sensor for hsa-mir-208a)
apparent KD of MS2 coat protein [2]: 23.7 nM | apparent KD of MS2 coat protein [3]: 16.1 nM | apparent KD of MS2 coat protein [4]: 27.2 nM

CCAAAGUACAAUUUAGAUCUACAUGAGGAUCACCCAUGUACUGAGGAUAUCAGCUCGAUUAGAGCUGAGAAGGCAGAAUUAAUU [SSNG3/4-A2] (Eterna round: R96, puzzle: Same State NG 3)
apparent KD of MS2 coat protein (input ligand: FMN 200 uM): 101 nM | apparent KD of MS2 coat protein [1]: 90 nM | apparent KD of MS2 coat protein (input ligand: none): 148 nM

GCUACCAAAGAAGCCAACAUGAGGAUCACCCAUGUAUGUUGGUAGGAUAUCGUAUGCAAAGCAUACGAGAAGGGCUAAGGUAGC [Mat - Same State NG 3 - JL Mod - D78] (Eterna round: R96, puzzle: Same State NG 3)
apparent KD of MS2 coat protein [1]: 86.9 nM

GUGGUCAGACAUGAGGAUCACCCAUGUGGAAUAAAUAACGUCAAGGAUAUAUAAUAUAGGAUAUAAUAGAAGGUGAGAUUGGUG (Eterna round: R96, puzzle: Same State NG 3)
apparent KD of MS2 coat protein (input ligand: FMN 200 uM): 108 nM | apparent KD of MS2 coat protein [1]: 107 nM | apparent KD of MS2 coat protein (input ligand: none): 119 nM

GGAUGAUGGACAGGAUAUUGAUUUUAAUGGUUUCAAGAAGGGUCUUUGAUUUAAACGACCAGUUACAUGAGGAUCACCCAUGUU [JR_SSNG1_Sub032] (Eterna round: R96, puzzle: Same State NG 1)
apparent KD of MS2 coat protein (input ligand: FMN 200 uM): 40.1 nM | apparent KD of MS2 coat protein [1]: 36.1 nM | apparent KD of MS2 coat protein (input ligand: none): 52 nM

AGUAGUUUAACAUGAGGAUCACCCAUGUAUGUAUAUGUAACCUAGGAUAUGGAGGUUUUAUUUAACCAGAAGGAGGAUUGUUUA [JR_SSNG3_Sub043] (Eterna round: R96, puzzle: Same State NG 3)
apparent KD of MS2 coat protein (input ligand: FMN 200 uM): 18.3 nM | apparent KD of MS2 coat protein [1]: 15.8 nM | apparent KD of MS2 coat protein (input ligand: none): 20.7 nM

UCUUGGUUUUUGCUCGUUUUUUGUGUUGAACAUGAGGAUCACCCAUGUAUUGUACGGUCCGGUUUAGUAGUGGUCCA [JMF 44] (puzzle: Sensor for hsa-mir-208a)
apparent KD of MS2 coat protein [2]: 118 nM | apparent KD of MS2 coat protein [3]: 92.8 nM | apparent KD of MS2 coat protein [4]: 144 nM

AUAAAACAUGAGGAUCACCCAUGUCAUCAAAGUCGAGGAUAUGGGCAAAUAAAAUAAGAACCAGAAGGCGAAUAAU [salish99_ss1_r3_043] (puzzle: Same State 1)
apparent KD of MS2 coat protein [2]: 106 nM | apparent KD of MS2 coat protein [3]: 298 nM | apparent KD of MS2 coat protein [4]: 501 nM

UAGCUCGUGUGAGGAUAUGCCGCCGUUUCGGCUGCAGAAGGUGCUACGUUACAUGAGGAUCACCCAUGUCUCUGUUGUUUCGUU [salish99_SSNG1_r04_956] (Eterna round: R96, puzzle: Same State NG 1)
apparent KD of MS2 coat protein (input ligand: FMN 200 uM): 21.5 nM | apparent KD of MS2 coat protein [1]: 17.5 nM | apparent KD of MS2 coat protein (input ligand: none): 23.1 nM

AGUCCAGCCUGAGCUGGACAAAAGCAUGUACAUGAGGAUCACCCAUGUCAUGUACAAGCUUUUUGCUCGUAUUAAAA [Mat - hsa-mir-208a - Mod of JL - D9] (puzzle: Sensor for hsa-mir-208a)
apparent KD of MS2 coat protein [2]: 362 nM | apparent KD of MS2 coat protein [3]: 15.4 nM | apparent KD of MS2 coat protein [4]: 574 nM

UGCAUACAUGAGGAUCACCCAUGUCAACGUAGUCGAGGAUAUGGGCAGCCGUGAGGCGAACCAGAAGGCGAAUUGU [JL-ss1-3.03 ViennaUCT mod] (puzzle: Same State 1)
apparent KD of MS2 coat protein [2]: 23.1 nM | apparent KD of MS2 coat protein [3]: 52.7 nM | apparent KD of MS2 coat protein [4]: 115 nM
